Reduction of Meso-TR3 killing of OVCAR3 cells by soluble mesothelin (% cell killing) and percent of cells positive for the FLAG epitope tag data for one substance are collected here from patent publication US20130302270A1.

Assay [1] has as its target MUC16 (CA125), membrane-bound, on tumor cells (human) (UniProt Q8WXI7).
Assay [2] has the same target. Briefly: flow cytometry on MUC16-positive OVCAR3 cells, anti-FLAG detection.

Take “soluble mesothelin (Meso), secreted FLAG-tagged form of human mesothelin (from UniProt Q13421) (ligand)”: in assay [1], the reduction of Meso-TR3 killing of OVCAR3 cells by soluble mesothelin (% cell killing) was 40. Also, the percent of cells positive for the FLAG epitope tag in assay [2] amounted to 100%.
